Experiments:
[1] = biological target: PKC1 tagged at its COOH-terminus with the HA epitope (PKC1^HA) (UniProt P24583)
[2] = biological target: 1,3-β-glucan synthase (GS) complex (UniProt P38631)
Sequence of 1,3-β-glucan synthase (GS) complex (P38631 whole entry, looked up, one chain of several): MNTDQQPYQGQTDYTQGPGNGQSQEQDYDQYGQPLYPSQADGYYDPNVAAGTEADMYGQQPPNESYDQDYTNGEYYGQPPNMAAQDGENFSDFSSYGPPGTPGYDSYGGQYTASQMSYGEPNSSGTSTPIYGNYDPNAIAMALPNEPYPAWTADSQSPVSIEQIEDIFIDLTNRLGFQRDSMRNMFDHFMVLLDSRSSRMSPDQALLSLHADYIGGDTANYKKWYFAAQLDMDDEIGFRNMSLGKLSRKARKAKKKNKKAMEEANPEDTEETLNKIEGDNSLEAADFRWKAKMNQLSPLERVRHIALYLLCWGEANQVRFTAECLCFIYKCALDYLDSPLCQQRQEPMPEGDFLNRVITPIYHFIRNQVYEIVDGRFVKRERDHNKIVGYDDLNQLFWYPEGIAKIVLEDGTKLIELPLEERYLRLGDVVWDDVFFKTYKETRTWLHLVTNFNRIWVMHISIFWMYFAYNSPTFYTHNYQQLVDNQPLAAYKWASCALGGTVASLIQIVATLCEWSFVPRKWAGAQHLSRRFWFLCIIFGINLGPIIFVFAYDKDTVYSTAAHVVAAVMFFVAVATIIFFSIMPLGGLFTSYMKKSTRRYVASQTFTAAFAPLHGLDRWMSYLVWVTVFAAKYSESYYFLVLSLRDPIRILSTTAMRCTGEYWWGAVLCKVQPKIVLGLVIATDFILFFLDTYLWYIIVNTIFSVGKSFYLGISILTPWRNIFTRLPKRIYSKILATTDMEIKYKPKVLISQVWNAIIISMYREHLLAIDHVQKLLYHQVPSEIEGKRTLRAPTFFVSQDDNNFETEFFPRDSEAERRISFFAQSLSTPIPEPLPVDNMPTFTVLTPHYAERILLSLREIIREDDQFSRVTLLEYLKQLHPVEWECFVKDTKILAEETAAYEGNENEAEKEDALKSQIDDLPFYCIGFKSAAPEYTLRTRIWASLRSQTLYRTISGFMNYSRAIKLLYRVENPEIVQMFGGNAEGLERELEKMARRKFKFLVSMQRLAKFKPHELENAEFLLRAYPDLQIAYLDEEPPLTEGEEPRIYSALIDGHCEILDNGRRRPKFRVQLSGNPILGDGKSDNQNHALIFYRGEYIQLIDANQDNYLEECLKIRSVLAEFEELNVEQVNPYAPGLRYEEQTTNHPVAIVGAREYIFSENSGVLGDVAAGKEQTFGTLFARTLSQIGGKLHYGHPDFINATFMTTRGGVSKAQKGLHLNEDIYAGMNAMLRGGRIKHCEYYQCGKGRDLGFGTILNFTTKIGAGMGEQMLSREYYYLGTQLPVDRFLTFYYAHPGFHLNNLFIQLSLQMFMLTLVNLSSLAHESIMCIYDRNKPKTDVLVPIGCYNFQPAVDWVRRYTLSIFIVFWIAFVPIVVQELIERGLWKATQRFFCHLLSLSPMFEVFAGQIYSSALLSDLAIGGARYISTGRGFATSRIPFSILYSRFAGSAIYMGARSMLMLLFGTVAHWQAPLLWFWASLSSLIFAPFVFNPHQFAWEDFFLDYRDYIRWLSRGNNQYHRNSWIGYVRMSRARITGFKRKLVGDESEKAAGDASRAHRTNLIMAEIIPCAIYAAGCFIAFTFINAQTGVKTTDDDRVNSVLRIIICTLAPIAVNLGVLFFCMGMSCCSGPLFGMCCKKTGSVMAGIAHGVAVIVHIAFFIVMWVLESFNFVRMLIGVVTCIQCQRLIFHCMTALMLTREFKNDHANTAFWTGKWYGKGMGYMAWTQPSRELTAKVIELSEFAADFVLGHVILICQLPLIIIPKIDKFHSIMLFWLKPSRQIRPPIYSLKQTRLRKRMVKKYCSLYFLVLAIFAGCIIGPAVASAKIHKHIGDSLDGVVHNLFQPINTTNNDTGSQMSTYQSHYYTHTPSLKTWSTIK

Sequence of PKC1 tagged at its COOH-terminus with the HA epitope (PKC1^HA) (P24583 whole entry): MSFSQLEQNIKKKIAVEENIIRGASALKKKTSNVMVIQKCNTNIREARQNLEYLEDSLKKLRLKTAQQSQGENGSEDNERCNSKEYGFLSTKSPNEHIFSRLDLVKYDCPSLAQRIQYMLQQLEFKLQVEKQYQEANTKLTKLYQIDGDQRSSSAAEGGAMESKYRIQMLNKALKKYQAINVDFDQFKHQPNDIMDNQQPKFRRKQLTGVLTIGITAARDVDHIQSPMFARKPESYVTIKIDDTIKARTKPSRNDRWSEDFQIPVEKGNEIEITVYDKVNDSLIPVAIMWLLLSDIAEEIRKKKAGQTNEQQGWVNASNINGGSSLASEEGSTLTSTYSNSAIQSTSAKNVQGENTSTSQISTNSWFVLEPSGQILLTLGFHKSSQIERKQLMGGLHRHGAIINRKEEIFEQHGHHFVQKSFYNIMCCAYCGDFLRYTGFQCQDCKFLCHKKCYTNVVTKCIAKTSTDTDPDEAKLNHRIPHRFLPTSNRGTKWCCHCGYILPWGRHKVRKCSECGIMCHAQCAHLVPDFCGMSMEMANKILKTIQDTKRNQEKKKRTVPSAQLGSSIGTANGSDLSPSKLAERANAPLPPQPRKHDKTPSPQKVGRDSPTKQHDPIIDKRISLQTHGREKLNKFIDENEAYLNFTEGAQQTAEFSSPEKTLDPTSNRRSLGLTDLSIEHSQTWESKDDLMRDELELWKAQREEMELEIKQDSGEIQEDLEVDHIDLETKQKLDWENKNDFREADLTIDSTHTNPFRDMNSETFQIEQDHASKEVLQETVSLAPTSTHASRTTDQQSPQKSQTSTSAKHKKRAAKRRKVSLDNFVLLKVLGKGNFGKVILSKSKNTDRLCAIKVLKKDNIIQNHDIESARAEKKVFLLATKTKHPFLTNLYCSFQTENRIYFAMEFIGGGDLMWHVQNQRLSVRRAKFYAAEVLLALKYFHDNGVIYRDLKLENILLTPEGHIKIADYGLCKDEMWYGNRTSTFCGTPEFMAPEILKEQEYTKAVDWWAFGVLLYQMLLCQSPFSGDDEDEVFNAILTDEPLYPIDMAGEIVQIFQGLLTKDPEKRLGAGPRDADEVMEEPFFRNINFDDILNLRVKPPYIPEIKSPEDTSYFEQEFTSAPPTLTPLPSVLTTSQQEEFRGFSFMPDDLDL

| Substance | Phosphorylation of synthetic Bck1 peptide by PKC1^HA [1] | GS activity in the membrane fraction of the cal1-1 mutant [2] |
| --- | --- | --- |
| Recombinant GST-Cdc42 | GST-Cdc42 did not confer cofactor-dependent stimulation on PKC1 |  |
| Recombinant mutant Rho1 (G19V), constitutively active GST-Rho1 |  | GS activity was restored by the addition of constitutively activated Rho1 |
